Results reported in patent US20220306758A1 (Regeneron, published 2022).

Assays:
[1] = biological target: T1, monkey BCMA-MMH (monkey BCMA with C-terminal myc-myc-hexahistidine tag) (monkey); experiment: SPR, Biacore, mAb captured by anti-hFc, 25 C
T1 construct: The words 'extracellular domain' stand before human BCMA in the sentence and are read as applying to the monkey construct too; also called mfBCMA.mmh
Protocol: (§1) The CM5 Biacore sensor surface was derivatized by amine coupling with a monoclonal mouse anti-human Fc antibody (GE, #BR-1008-39) to capture purified anti-BCMA mAbs and anti-BCMA×anti-CD3 bispecific mAbs. All Biacore binding studies were performed in a buffer composed of 0.01M HEPES pH 7.4, 0.15M NaCl, 3 mM EDTA, 0.05% v/v Surfactant P20 (HBS-ET running buffer). […] Antigen samples were then injected over the anti-BCMA and anti-BCMA×anti-CD3 bispecific mAbs captured surfaces at a flow rate of 30 μL/minute. Antibody-reagent association was monitored for 5 minutes while dissociation in HBS-ET running buffer was monitored for 10 minutes. All of the binding kinetics experiments were performed at 25° C. Kinetic association (kₐ) and dissociation (kd) rate constants were determined by fitting the real-time sensorgrams to a 1:1 binding model using Scrubber 2.0c curve fitting software. Binding dissociation equilibrium constants (KD) and dissociative half-lives (t½) were calculated from the kinetic rate constants as: […]

[2] = biological target: T2, mouse BCMA-MFC (BCMA with C-terminal mFc tag) (mouse); experiment: SPR, Biacore, mAb captured by anti-hFc, 25 C
T2 construct: Tested at 30 nM only
T2 chain: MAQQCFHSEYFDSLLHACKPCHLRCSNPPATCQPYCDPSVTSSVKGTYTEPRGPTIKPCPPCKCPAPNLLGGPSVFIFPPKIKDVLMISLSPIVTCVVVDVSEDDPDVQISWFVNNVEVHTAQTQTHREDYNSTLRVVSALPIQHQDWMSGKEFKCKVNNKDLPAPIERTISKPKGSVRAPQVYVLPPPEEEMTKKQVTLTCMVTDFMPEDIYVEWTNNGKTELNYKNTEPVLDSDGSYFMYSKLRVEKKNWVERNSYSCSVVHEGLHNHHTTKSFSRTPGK
Protocol: as §1

[3] = biological target: T3, human BCMA-MFC (extracellular domain of human BCMA with C-terminal mFc tag) (human); experiment: SPR, Biacore, mAb captured by anti-hFc, 25 C
T3 construct: also called hBCMA.mFc
T3 chain: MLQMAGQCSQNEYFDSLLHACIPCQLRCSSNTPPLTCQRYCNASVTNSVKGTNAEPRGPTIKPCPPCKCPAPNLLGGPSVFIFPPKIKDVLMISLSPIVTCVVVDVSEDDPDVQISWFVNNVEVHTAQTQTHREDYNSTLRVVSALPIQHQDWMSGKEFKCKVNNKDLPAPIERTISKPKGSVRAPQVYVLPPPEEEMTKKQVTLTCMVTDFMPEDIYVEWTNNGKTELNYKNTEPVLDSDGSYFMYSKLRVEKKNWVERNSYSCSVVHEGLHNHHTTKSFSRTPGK
Protocol: as §1

[4] = biological target: T4, human BCMA-MMH (extracellular domain of human BCMA with C-terminal myc-myc-hexahistidine tag) (human); experiment: SPR, Biacore, mAb captured by anti-hFc, 25 C
T4 construct: Monomeric antigen; the entry holds the ectodomain and the myc-myc-His tag; also called hBCMA.mmh; hBCMA.mmH
T4 chain: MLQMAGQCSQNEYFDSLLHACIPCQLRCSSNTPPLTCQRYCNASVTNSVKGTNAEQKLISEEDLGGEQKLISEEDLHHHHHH
Protocol: as §1

[5] = biological target: T5, monkey BCMA-MFC (monkey BCMA with C-terminal mFc tag) (monkey); experiment: SPR, Biacore, mAb captured by anti-hFc, 25 C
T5 construct: also called mfBCMA.mFc
T5 sequence (chain, as listed by the source limits assumed): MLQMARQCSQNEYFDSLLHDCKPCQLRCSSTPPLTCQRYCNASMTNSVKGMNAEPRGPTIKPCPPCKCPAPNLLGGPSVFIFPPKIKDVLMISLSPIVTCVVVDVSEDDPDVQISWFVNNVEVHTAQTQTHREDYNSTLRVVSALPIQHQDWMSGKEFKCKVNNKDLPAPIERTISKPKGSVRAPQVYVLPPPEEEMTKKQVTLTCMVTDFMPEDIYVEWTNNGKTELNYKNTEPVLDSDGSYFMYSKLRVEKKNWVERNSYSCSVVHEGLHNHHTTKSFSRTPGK
Protocol: as §1

[6] = biological target: T6, human BCMA on cells (endogenous, on multiple myeloma and lymphoma cell lines) (human, UniProt Q02223 1-184); experiment: cell-based or functional assay
T6 sequence: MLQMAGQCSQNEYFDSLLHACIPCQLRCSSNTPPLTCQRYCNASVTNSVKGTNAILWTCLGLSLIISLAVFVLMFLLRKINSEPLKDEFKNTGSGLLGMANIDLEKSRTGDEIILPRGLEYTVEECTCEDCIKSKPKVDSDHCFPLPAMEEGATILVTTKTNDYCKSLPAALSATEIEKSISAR

[7] = biological target: T7, human CD3 on Jurkat cells and primary human CD8+ T cells (human, UniProt P07766 23-207; P04234 22-171; P20963 22-164; P09693 23-182); experiment: flow cytometry on primary human CD8+ T cells, n=1
T7 construct: Endogenous CD3 complex on cells; also called hCD3; Jurkat-hCD3
T7 sequence (P07766 23-207 limits assumed, chain 1 of 4): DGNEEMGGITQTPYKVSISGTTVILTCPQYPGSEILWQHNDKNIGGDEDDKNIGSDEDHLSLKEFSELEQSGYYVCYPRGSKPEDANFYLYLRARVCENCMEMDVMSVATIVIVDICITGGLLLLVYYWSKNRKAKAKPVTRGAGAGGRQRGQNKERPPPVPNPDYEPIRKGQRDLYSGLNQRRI
T7 sequence (P04234 22-171 limits assumed, chain 2 of 4): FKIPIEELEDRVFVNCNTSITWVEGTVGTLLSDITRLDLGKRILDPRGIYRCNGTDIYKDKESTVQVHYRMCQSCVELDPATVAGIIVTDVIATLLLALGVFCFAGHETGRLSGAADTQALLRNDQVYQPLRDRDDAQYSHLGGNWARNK
T7 sequence (P20963 22-164 limits assumed, chain 3 of 4): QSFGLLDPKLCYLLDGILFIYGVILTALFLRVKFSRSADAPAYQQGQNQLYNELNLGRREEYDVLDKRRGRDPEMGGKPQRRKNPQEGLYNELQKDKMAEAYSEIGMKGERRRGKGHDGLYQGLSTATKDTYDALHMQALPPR
T7 sequence (P09693 23-182 limits assumed, chain 4 of 4): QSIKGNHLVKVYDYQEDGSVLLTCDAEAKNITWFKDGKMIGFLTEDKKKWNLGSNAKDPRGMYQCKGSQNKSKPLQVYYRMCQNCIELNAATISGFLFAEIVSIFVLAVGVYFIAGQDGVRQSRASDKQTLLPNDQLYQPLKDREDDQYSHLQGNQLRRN
Protocol: Flow cytometric analysis was utilized to determine binding of BCMA×CD3 bispecific antibodies to human and cynomolgus CD3 (Jurkat cells, mfCD3 engineered Jurkat cells, primary human CD8+ and cynomolgus CD8+ T cells). Briefly, 1e05 cells/well were incubated in the presence of FACS wash with block (PBS+1% filtered FBS+5% mouse serum) with a serial dilution of BCMA×CD3 and control antibodies for 30 minutes on ice. After incubation, the cells were washed twice with cold FACS wash (PBS+1% filtered FBS) and bound antibody was detected by incubating with Alexa647-conjugated anti-human secondary antibody on ice for an additional 30 minutes. Wells containing no antibody or secondary only were used as a control. For the detection of monkey and human T cells, a cocktail of human and cynomolgus cross-reactive antibodies to CD4, CD8 and CD16 was added to the anti-human secondary. After incubation, cells were washed, re-suspended in 200 μL cold PBS containing 1% filtered FBS and analyzed by flow cytometry on a BD FACS Canto II. Cells were gated by FSC-H by FSC-A to select singlet events, followed by side and forward scatters to select for live events. For monkey T cells, additional gating on CD8+/CD16− cells was performed.
EC50 values for FACS binding were calculated using 4-parameter non-linear regression analysis in Prism software.

[8] = biological target: T6, human BCMA on cells (endogenous, on …); experiment: cell-based or functional assay; remark: listed apart in the source

T1 sequence (chain, as listed by the source limits assumed): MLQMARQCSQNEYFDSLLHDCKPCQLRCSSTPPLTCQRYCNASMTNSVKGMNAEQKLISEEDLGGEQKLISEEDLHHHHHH

Binder	90 nM mfBCMA.mmh Bind (RU) [1] [RU]	Kd [1] [nM]	koff [1] [s⁻¹]	kon [1] [M⁻¹ s⁻¹]	t½ [1] [min]	30 nM mfBCMA.mFc Bind (RU) (mouse BCMA-MFC by the table's title) [2]	binding result [2]	30 nM hBCMA.mFc Bind (RU) [3] [RU]	Kd [3] [nM]	koff [3] [s⁻¹]	kon [3] [M⁻¹ s⁻¹]	t½ [3] [min]	90 nM hBCMA.mmh Bind (RU) [4] [RU]	Kd [4] [nM]	koff [4] [s⁻¹]	kon [4] [M⁻¹ s⁻¹]	t½ [4] [min]	30 nM mfBCMA.mFc Bind (RU) [5] [RU]	Kd [5] [nM]	koff [5] [s⁻¹]	further results
REGN5458 (bsAb25441D), anti-BCMA x anti-CD3 bispecific antibody (bispecific antibody, V domains shown, Two different heavy chains paired with a common light chain; human Fc (captured by anti-human Fc in SPR); also called bsAb25441D9; mAb25441D) VH 1: EVQLVESGGGLVQPGGSLRLSCAASGFTFSNFWMTWVRQAPGKGLEWVANMNQDGSEKYYVDSVKGRFTISRDNAKSSLYLQMNSLRAEDTAVYYCARDREYCISTSCYDDFDYWGQGTLVTVSS VH 2: EVQLVESGGGLVQPGRSLRLSCAASGFTFDDYSMHWVRQAPGKGLEWVSGISWNSGSKGYADSVKGRFTISRDNAKNSLYLQMNSLRAEDTALYYCAKYGSGYGKFYHYGLDVWGQGTTVTVSS VL: not shown	14.8	49.9	0.00909	182000	1.3	2.7	no binding (tested: 30 nM)	107	≤ 0.0223	≤ 1e-05	448000	≤ 1160	19.9	1.06	0.000874	827000	13.2	108	0.167	8.8e-05	kon [5]: 528000 M⁻¹ s⁻¹; t½ [5]: 131 min; EC50 of NFAT-luciferase activity, Jurkat/NFATLuc reporter cells with Daudi cells [6]: 2.1 nM; EC50 of NFAT-luciferase activity, Jurkat/NFATLuc reporter cells with MM1-S cells [6]: 1.2 nM; EC50 of NFAT-luciferase activity, Jurkat/NFATLuc reporter cells with NCI-H929 cells [6]: 0.68 nM; EC50 of NFAT-luciferase activity, Jurkat/NFATLuc reporter cells with OPM-2 cells [6]: 0.66 nM; EC50 [7]: 32 nM; median EC50 of % Survival, Molp8 target cells, human effector cells (FACS cytotoxicity) [8]: 0.707 nM; median EC50 of % Survival, RPMI8226 target cells, human effector cells (FACS cytotoxicity) [8]: 0.0345 nM; median EC50 of % T activation (CD25 on CD8+ T cells), Molp8 target cells, human effector cells [8]: 1.1 nM; median EC50 of % T activation (CD25 on CD8+ T cells), RPMI8226 target cells, human effector cells [8]: 0.0649 nM
REGN5459 (bsAb25442D), anti-BCMA x anti-CD3 bispecific antibody (bispecific antibody, V domains shown, also called mAb25442D; mAb25442D-A647) VH 1: EVQLVESGGGLVQPGGSLRLSCAASGFTFSNFWMTWVRQAPGKGLEWVANMNQDGSEKYYVDSVKGRFTISRDNAKSSLYLQMNSLRAEDTAVYYCARDREYCISTSCYDDFDYWGQGTLVTVSS VH 2: EVQLVESGGGLVQPGRSLRLSCAASGFTFDDYSMHWVRQAPGKGLEWVSGISWNSGSIGYADSVKGRFTISRDNAKNSLYLQMNSLRAEDTALYYCAKYGSGYGKFYYYGMDVWGQGTTVTVSS VL: not shown	12.7	38.8	0.00864	223000	1.3	2.4	no binding (tested: 30 nM)	96.8	≤ 0.0223	≤ 1e-05	449000	≤ 1160	17	1.38	0.00101	730000	11.5	97	0.148	7.15e-05	kon [5]: 482000 M⁻¹ s⁻¹; t½ [5]: 162 min; EC50 of NFAT-luciferase activity, Jurkat/NFATLuc reporter cells with Daudi cells [6]: 7.9 nM; EC50 of NFAT-luciferase activity, Jurkat/NFATLuc reporter cells with MM1-S cells [6]: 4.4 nM; EC50 of NFAT-luciferase activity, Jurkat/NFATLuc reporter cells with NCI-H929 cells [6]: 2.7 nM; EC50 of NFAT-luciferase activity, Jurkat/NFATLuc reporter cells with OPM-2 cells [6]: 2.6 nM; EC50 [7]: 4710 nM; median EC50 of % Survival, Molp8 target cells, human effector cells (FACS cytotoxicity) [8]: 1.36 nM; median EC50 of % Survival, RPMI8226 target cells, human effector cells (FACS cytotoxicity) [8]: 0.106 nM; median EC50 of % T activation (CD25 on CD8+ T cells), Molp8 target cells, human effector cells [8]: 6.47 nM; median EC50 of % T activation (CD25 on CD8+ T cells), RPMI8226 target cells, human effector cells [8]: 0.75 nM
